Results from patent publication US7662400.

Key:
[1] = tested on: T1, fluorescent quenched PAR-2 peptide substrate Abz-SKGRSLIGK(Dnp)D
T1 sequence: SKGRSLIGK

[2] = molecular target: protease-activated receptor 2 (PAR-2) on human eosinophils / BEAS-2B airway epithelial cells (UniProt P55085)
protease-activated receptor 2 (PAR-2) on human eosinophils / BEAS-2B airway epithelial cells, sequence (P55085 whole entry, looked up): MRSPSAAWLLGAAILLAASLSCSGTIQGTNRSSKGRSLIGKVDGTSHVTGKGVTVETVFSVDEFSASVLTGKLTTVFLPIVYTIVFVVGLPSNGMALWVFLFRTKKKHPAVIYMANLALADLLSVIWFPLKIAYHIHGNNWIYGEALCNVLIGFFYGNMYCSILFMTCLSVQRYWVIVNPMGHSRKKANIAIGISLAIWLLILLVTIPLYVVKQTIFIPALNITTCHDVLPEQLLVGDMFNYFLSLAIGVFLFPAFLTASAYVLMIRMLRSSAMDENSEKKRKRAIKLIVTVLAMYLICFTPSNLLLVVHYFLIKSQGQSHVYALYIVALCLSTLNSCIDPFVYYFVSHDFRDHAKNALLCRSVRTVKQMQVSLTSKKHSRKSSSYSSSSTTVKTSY

Substance | in vitro assay for PAR-2 cleavage and activation (fluorescent quenched peptide substrate) [1] | deglycosylation and downregulation of PAR-2 in eosinophils (Western blot) [2]
trypsin | trypsin, as positive control, clearly cleaved this peptide | 
Aspergillus xylanase |  | The 41 kDa and 70 kDa PAR-2 molecules were deglycosylated by xylanase temporarily
